The labels stand for the following.
B1: LINE1-full (parent)
chain: UACGUAGGUGGUUUUCCCCUGAUAGUGCUAAGGGGGCCUGGAAGUUUGGACUGGGCAGAGCUCAACACAGCGUGGCAAAGUGGCUGUGGCUAGACUGCCUCUCUGGAUUCCUCGUCACUCAGCAGGGCAUCUCUGAGAGAAAUGCC

Variants of B1 are the subject of this data set. The data set is described as follows: self-cleavage, relative activity (ratio to wild type); higher = more cleavage; in vitro, sequencing; the parent is a self-cleaving ribozyme.
UACGUAGGUGGUUUUCCCCUGAUAGUGCUAAGGGGGCCUGGAAGUUUGGACCGGGCAGAGCUCAACACAGCGUGGCAAAGUGGCUGUGGCUAGACUGCCUCUCUGGAUUCCACGUCACUCAGCAGGGCAUCUCUGAGAGAAAUGCC: the self-cleavage was 0.99.

As to UACGUAGGUGGUUUUCCCCUGAUAGUGCUAAGGGGGCCUGGAAGUUUGGACCGGGCAGAGCUCAACACAGCGUGGCAAAGUGGCUGUGGCUAGACUGCCUCUCUGGAUUCCUCGUCACUCAGCAGGACAUCUCUGAGAGAAAUGCC, the self-cleavage was determined as 0.93. In the case of UACGUAGGUGGUUUUCCCCUGAUAGUGCUAAGGGGGCCUGGAAGUUUGGACCGGGCAGAGCUCAACACAGCGUGGCAAAGUGGCUGUGGCUAGACUGCCUCUCUGGAUUCCUCGUCACUCAGCAGGGCAUCGCUGAGAGAAAUGCC, the self-cleavage was 1.93. For UACGUAGGUGGUUUUCCCCUGAUAGUGCUAAGGGGGCCUGGAAGUUUGGACCGGGCAGAGCUCAACACAGCGUGGCAAAGUGGCUGUGGCUAGACUGCCUCUCUGGAUUCCUCGUCACUCAGCAGGGCAUCACUGAGAGAAAUGCC the value was 1.88; for UACGUAGGUGGUUUUCCCCUGAUAGUGCUAAGGGGGCCUGGAAGUUUGGACCGGGCAGAGCUCAACACAGCGUGGCAAAGUGGCUGUGGCUAGACUGCCUCUCUGGAUUCCUCGUCACUCAGCAGGGCAUCUCUGAGAGAAAUACC, 1.73; for UACGUAGGUGGUUUUCCCCUGAUAGUGCUAAGGGGGCCUGGAAGUUUGGACCGGGCAGAGCUCAACACAGCGUGGCAAAGUGGCUGUGGCUAGACCGCCUCUCUGGAUUCCUCGUCACUCAGCAGGGCAUCUCUGAGAGAAAUGCC, 0.02. Regarding UACGUAGGUGGUUUUCCCCUGAUAGUGCUAAGGGGGCCUGGAAGUUUGGACCGGGCAGAGCGCAACACAGCGUGGCAAAGUGGCUGUGGCUAGACUGCCUCUCUGGAUUCCUCGUCACUCAGCAGGGCAUCUCUGAGAGAAAUGCC, the self-cleavage is 0. For UACGUAGGUGGUUUUCCCCUGAUAGUGCUAAGGGGGCCUGGAAGUUUGGACCGGGCAGAGCUCAACACAGCGUGGCAAAGUGGCUGUGGCUAGACUGCCUCUCUGGAUUCCUCGUCACUCAGCAGGGCAUCUCUGAAAGAAAUGCC, the self-cleavage turned out to be 0.89. In the case of UACGUAGGUGGUUUUCCCCUGAUAGUGCUAAGGGGGCCUGGAAGUUUGGACCGGGCAGAGCUCAACACAGCGUGGCAAAGUGGCUGUGGCGAGACUGCCUCUCUGGAUUCCUCGUCACUCAGCAGGGCAUCUCUGAGAGAAAUGCC, the self-cleavage was 0.17. As to UACGUAGGUGGUUUUCCCCUGAUAGUGCUAAGGGGGCCUGGAAGUUUGGACCGGGCAGAGCUCAACACAGCGUGGCAAAGUGGCUGUGGCUAGACUGCCCCUCUGGAUUCCUCGUCACUCAGCAGGGCAUCUCUGAGAGAAAUGCC, the self-cleavage was 2.25. UACGUAGGUGGUUUUCCCCUGAUAGUGCUAAGGGGGCCUGGAAGUUUGGACCGGGCAGAGCUCAACACAGCGUGGCAAAGUGGCUGUGGCUAGACUGCCACUCUGGAUUCCUCGUCACUCAGCAGGGCAUCUCUGAGAGAAAUGCC: the self-cleavage stood at 0.63. Turning to UACGUAGGUGGUUUUCCCCUGAUAGUGCUAAGGGGGCCUGGAAGUUUGGACCGGGCAGAGCUCAACACAGCGUGGCAAAGUGGCUGUGGCUAGACUGCCUCUCUGGACUCCUCGUCACUCAGCAGGGCAUCUCUGAGAGAAAUGCC, the self-cleavage was 1.68.

For UACGUAGGUGGUUUUCCCCUGAUAGUGCUAAGGGGGCCUGGAAGUUUGGACCGGGCAGAGCUCAACACAGCGUGGCAAAGUGGCUGUGGCUAGACUGCCUCUCUGGAUUCCUCGUCACCCAGCAGGGCAUCUCUGAGAGAAAUGCC, the self-cleavage amounted to 1.86. On to UACGUAGGUGGUUUUCCCCUGAUAGUGCUAAGGGGGCCUGGAAGUUUGGACCGGGCAGAGCUCAACACAGCGUGGCAAAGUGGCUGAGGCUAGACUGCCUCUCUGGAUUCCUCGUCACUCAGCAGGGCAUCUCUGAGAGAAAUGCC, for which the self-cleavage is 0.08. On to UACGUAGGUGGUUUUCCCCUGAUAGUGCUAAGGGGGCCUGGAAGUUUGGACCGGGCAGAGCUCAACACAGCGUGGCAAAGUGGCUGGGGCUAGACUGCCUCUCUGGAUUCCUCGUCACUCAGCAGGGCAUCUCUGAGAGAAAUGCC, for which the self-cleavage amounted to 0. For UACGUAGGUGGUUUUCCCCUGAUAGUGCUAAGGGGGCCUGGAAGUUUGGACCGGGCAGAGCUCAACACAGCGUGGCAAAGUGGCUGUGGCUAGACUGCCUCUCUGGAUUCCUCGUCACUCAGCAGAGCAUCUCUGAGAGAAAUGCC, the self-cleavage amounted to 1.18. With UACGUAGGUGGUUUUCCCCUGAUAGUGCUAAGGGGGCCUGGAAGUUUGGACCGGGCAGAGCUCAACACAGCGUGGCAAAGUGGCUGUGGCUAGACUGCCUCUCUGGAUUCCUCGUCACUCAGCAGUGCAUCUCUGAGAGAAAUGCC, the self-cleavage is 1.31. UACGUAGGUGGUUUUCCCCUGAUAGUGCUAAGGGGGCCUGGAAGUUUGGACCGGGCAGAGCUCAACACAGCGAGGCAAAGUGGCUGUGGCUAGACUGCCUCUCUGGAUUCCUCGUCACUCAGCAGGGCAUCUCUGAGAGAAAUGCC: the self-cleavage is 1.21.

On to UACGUAGGUGGUUUUCCCCUGAUAGUGCUAAGGGGGCCUGGAAGUUUGGACCGGGCAGAGCUCAACACAGCGCGGCAAAGUGGCUGUGGCUAGACUGCCUCUCUGGAUUCCUCGUCACUCAGCAGGGCAUCUCUGAGAGAAAUGCC, for which the self-cleavage stood at 0.54. As for UACGUAGGUGGUUUUCCCCUGAUAGUGCUAAGGGGGCCUGGAAGUUUGGACCGGGCAGAGCUCAACACAGCGUGGCAAAGUGGCUGUGGCUAGACUGCCUCUCUGGAUUCCUCGCCACUCAGCAGGGCAUCUCUGAGAGAAAUGCC, the self-cleavage amounted to 1.64.

The values above are taken from the RNAGym collection of RNA variant scans (doi:10.7554/elife.90254).
